Reference: patent CN105367658A (ZHU JIN, dated 2016)

Target: T1, 重组人唾液酸结合免疫球蛋白样凝集素-9蛋白 (human, UniProt Q9Y336 18-348, limits assumed)
T1 construct: Purified recombinant protein coated on ELISA plates and (as 'antigen') coupled to the CM5 chip; also called recombinant human Siglec-9; Siglec9蛋白
Assay: SPR (Biacore X100), antigen coupled to CM5 chip, analyte 0-80 nM

T1 sequence (Q9Y336 18-348 limits assumed): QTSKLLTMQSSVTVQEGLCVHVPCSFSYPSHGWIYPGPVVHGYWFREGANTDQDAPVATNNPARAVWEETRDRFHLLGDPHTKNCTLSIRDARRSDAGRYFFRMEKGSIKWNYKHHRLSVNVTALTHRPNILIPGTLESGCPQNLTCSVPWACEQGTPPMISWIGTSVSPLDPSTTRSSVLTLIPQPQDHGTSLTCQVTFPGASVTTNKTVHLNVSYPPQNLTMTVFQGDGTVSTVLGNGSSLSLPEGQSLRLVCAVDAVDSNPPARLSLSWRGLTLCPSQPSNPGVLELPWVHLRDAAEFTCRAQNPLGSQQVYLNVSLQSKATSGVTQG

Kd: 0.738 nM
B1: 人源抗唾液酸结合免疫球蛋白样凝集素-9抗体IgG (antibody, V domains shown)
VH: EVQLVESGAEVKKPGASVKVSCKASGYIFTGYYMHWVRQAPGQGLEWMGWINPKSGGTNYAQKFQGRVTMTRDTSISTAYMELSRLRSDDTAVYYCVRDLGATGGDYWGQGTLVTVSS
VL: ELVLTQPPSVSVSPGQTARVTCSGDALPKKYAYWYQQKSGQAPILVIYGDNKRPSGIPERFSGSSSGTMATLTISGAQVEDEADYYCYSIDRSGNRVFGGGTRLTVLQ
notes: also called PA21抗体; 抗Siglec-9抗体
